According to article PMC4072508, “Genome-Wide Prediction and Validation of Peptides That Bind Human Prosurvival Bcl-2 Proteins” (PLoS Computational Biology, 2014):

T1: Mcl-1, Q07820
T1 chain: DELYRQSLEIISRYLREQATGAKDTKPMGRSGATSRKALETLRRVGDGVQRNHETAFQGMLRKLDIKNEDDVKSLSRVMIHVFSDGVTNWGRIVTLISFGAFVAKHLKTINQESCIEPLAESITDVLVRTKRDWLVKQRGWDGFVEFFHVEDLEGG


Target: T1, Mcl-1, Q07820
Assay: peptide SPOT array, c-Myc-tagged receptor at 1 uM or 100 nM, anti-c-Myc-Cy3

Binder	SPOT signal as a fraction of Bim BH3's signal on the same receptor and array
AEVELEYSRGLEKLAERFSSRGGRLG [ARHGAP4]	0.02
QISTRLPSDYIYGIGEQVHKRFRHDL [SI]	0.12
NATHEEVVHLLRNALDEVTITVEYLR [SNTG2]	0.01
PFNKEELTAILKFGAEDLFKELEGEE [CHD2]	0.01
KGAKSESAESLRQWAQELEENLNELT [APOL4]	0.01
DPLNDNVATLLHQSSDRFVAELWKDV [MYH10]	0.02
EPTMKTLSDDLDEAAKEFQEKHKKEV [NAT10]	0.01
LGKRTGTVQVLKRSGRELIENSRDDT [MACF1]	0.05
ERMKGTFCIALEKFSKAIYKYVNHWR [HEATR7B2]	0.37
EEVFQSLSKILDVASLEVLNEVNRRS [GCN1L1]	0.14
LPGRPGLAALLGRLSDRLGRNRDRQR [PGS1]	0.24
HPEHFVCAFCLTQLSKGIFREQNDKT [LPXN]	0.03
SPVPPVVHLTLRQAGDDFSRRYRRDF [BCL2]	0.26
QPHTGKLCWFLDEAAARLLTVPFEKH [PGLS]	0.02
AELEVECATQLRRFGDKLNFRQKLLN [PMAIP1]	0.85
LWAAQRYGRELRRMSDEFVDSFKKGL [BAD]	0.53
TRELQELARKLQELLDASENLLTENT [TXNDC11]	0.01
LELVSGSIGVLKNMSQRIGGELEEQA [STX6]	0.02
AAPEGDWARLLEQMGALAVRGSRRER [ZBED3]	0.11
PFNKEELSAILKFGAEELFKEPEGEE [CHD1]	0.02
PASTDAVSALLEQTAVELEKRQEGRS [WWC1]	0.01
KRAAEMMASLLKDLAEIGIAVGNNDV [KIF5B]	0.02
SSEEITVAGNLEKSAERSTQGLKFHL [RSC1A1]	0.01
DRYEGFCVDMLKELAEILRFNYKIRL [GRIK4]	0.03
AEIELEYSRSLEKLAERFSSKIRSSR [SRGAP3]	0.07
CRREPGLAETLRDAAHLGLLECQFQF [WNT9B]	0.02
TGVNGEISYSLFQASDEISKTFKVDF [PCDHB8]	0.02

Binder	SPOT signal as a fraction of Bim BH3's signal on the same receptor and array
AKYLSGIAHFLEKLAFSSTARFDSKD [PMPCA]	0.06
DFITALPARGLDHIAENILSYLDAKS [BTRC]	0.02
DVTHSKAVEALKEAGSIVRLYVKRRK [DLG1]	0.13
FSDCLMVVQFLRNFGKVLGFDVNIDV [BAZ2B]	0.02
LFKAADSSRSIYEVAMQLLQILEPKM [FRYL]	0.02
GKDHPAVAATLNNLAVLYGKRGKYKE [KLC1]	0.22
VPARAPAVDLLEEAADLLVVHLDFRA [PEX26]	0.02
SGEFARICRDDSHIGDAVVISCAKDG [PCNA]	0.01
SVLRKALHDSLHDCSHWFYTRWKDWE [ZRANB1]	0.04
FDRAVVLSHYIHNLSSEMFSEFDKRY [PRL]	0.02
LDDSVEVIKALKNGGAHLDFRAKDGM [SHANK2]	0.02
KYFLQNFSCFLEETADEWAEKMPKGP [EFCAB6]	0.03
AIDAIFLTTTLQNISEDVLAVMDNKN [CKAP5]	0.02
DRFEGYCIDLLRELSTILGFTYEIRL [GRIK2]	0.02
RGPEAPGGRALRDAAENLFQELQEHF [PRR20C]	0.02
IVIDCSAIQFLDTAGIHTLKEVRRDY [SLC26A2]	0.02
GSKSDPLCVLLQDVGGGSWAELGRTE [CPNE1]	0.02
SKSKIHAARSLSEIAIDLTETGTLKT [FRMD4A]	0.02
TWEIECTSEMLKKLSSKVMTKVIKKK [TRANK1]	0.11
RTVESEAASYLDQISRYYITRAKLVS [PSME3]	0.15
AKTSQTVATFLDELAQKLKPLGEQER [THOP1]	0.02
QVQNIKLAGSLQHVAEKLCRELYNKA [CLEC1A]	0.11
IFNGSNWIMLIYKGGDEYDNHCGKEQ [M6PR]	0.02
EAGNMAAVGRLQAVSRRLFAELENER [KIAA1751]	0.02
ANLEISYAKGLQKLASKLSKALQNTR [NOSTRIN]	0.22
QATHDQAVQALKRAGKEVLLEVKFIR [SNTB2]	0.02
TESGSFVANLLKDLGLEIGELAVRGA [PCDHB2]	0.02
